Columns and labels:
[1] = In vitro stability in cynomolgus monkey serum by total antibody and ADC ELISAs; assay type: in vitro ADME, Cynomolgus (Macaca fascicularis); conditions: 37° C., ELISA
Experimental: (§1) ADCs were spiked in sterile mouse, rat or cynomolgus serum at a concentration of 100 μg/ml. Aliquots of 100 μl were incubated at +37° C. in Protein LoBind Tube (Eppendorf, Montesson, France). At specific times (day 1, day 4, day 7 and day 11) samples were removed from the oven and stored at −20° C. until sample processing and analysis.
Four different Ligand Binding Assay (LBAs) systems were used to determine Total Ab or ADC concentrations for ADC1 and ADC2[19]. More precisely, an antigen-specific assay was used for ADC1 and a universal method for ADC2. For the ADC quantification, specific anti-drugs were used relevant to the payload of the ADC.
Briefly, standard microtiter plates (MSD, Gaithersburg, USA) were coated at a concentration of 2 μg/ml Goat anti Human IgG, Monkey adsorbed antibody (SouthernBiotech) for Total Ab or of 3 μg/ml mouse monoclonal antibody raised against the payloads (Epitope Diagnostic Inc.) for ADC assays in PBS. After an overnight incubation at 4° C., plates were treated with blocking buffer (3% MSD Blocker A (MSD, Gaithersburg, USA)) for 1 h at 37° C. In parallel, the standard curves (1000 ng/ml-0.488 ng/ml) using reference immunoconjugates (ADC1 or ADC2) were prepared in assay buffer (1% MSD Blocker in TBS+0.02% Tween 20). Serum samples were diluted to 1:1000 or 1:5000 in a separate 2-ml deep 96-well polypropylene plate in MSD assay buffer. Standards and samples were then loaded onto the assay plate and incubated for 1 h at 37° C. After washing with 1×PBS, the detection step was done using a 2.5 μg/ml solution of the biotinylated antigen for the ADC1 (in house preparation) or a goat anti-human Ig Kappa sulfo-tag solution (in house preparation) diluted to 1 μg/ml in assay buffer for ADC2. After a 30-min incubation at 37° C., and a washing step, the detection was allowed by adding 150 μl of a 2×MSD-read T buffer containing surfactant (MSD, Gaithersburg, USA) just before reading using MSD Sector Imager.
The amount of total antibody and ADC, in serum samples was evaluated in parallel by a quantitative sandwich ELISA. […]

[2] = In vitro ADC stability in cynomolgus monkey serum, immunoprecipitation, reduction and LC-MS; assay type: in vitro ADME, Cynomolgus (Macaca fascicularis); conditions: spiked 100 μg/mL, 37° C.
Experimental: as §1
ADCs were immunoprecipitated from sera using the following protocol. Briefly, 100 μl M-280 Streptavidin magnetics beads suspension were washed three times with HBS-EP buffer (0.01 M HEPES pH 7.4, 0.15 M NaCl, 3 mM EDTA, 0.005% v/v Surfactant P20) and incubated for 30 min at RT with the CaptureSelect™ Human IgG-Fc PK Biotin conjugate. Serum samples from stability studies were then added to the beads and incubated for 2 h at RT. After washing steps with HBS-EP buffer and HBS buffer (10 mM HEPES, 150 mM NaCl, 3 mM EDTA pH 7.6), the ADC was eluted with 0.4% TFA in water. After freeze drying, the samples were reconstituted and incubated with 34 mM DTT in denaturing buffer (6 M Guanidine, 0.1 M Tris, 2 mM EDTA pH 8.0) for 45 min at 56° C.
Acetic acid was then added to quench the reaction and samples were analysed by LC-MS.
Reverse phase separation was performed on an ultra-high performance liquid chromatography (UHPLC) system (Acquity UPLC H-Class Bio system, Waters) coupled to a Synapt G2si mass spectrometer, instrument control was performed using MassLynx® software (Waters).
The reduced samples were directly injected on a PLRP-S column (2.1×150 mm 8 μm, 1000 Å, Agilent) heated at 80° C. with a flow rate of 0.5 ml/min. Elution was performed with water as eluent A and acetonitrile as eluent B, both containing 0.05% TFA. The following elution gradient was applied, B was raised from 30% to 45% in 13 min and then from 45% to 95% in 2 min. The column was washed using 95% B and equilibrated using 30% B for 10 min. The autosampler temperature was set at 10° C. […]
Data were analysed using Biopharmalynx™ (Waters) software. […]

Brentuximab vedotin [ADC2]
ADC level normalized against the total Ab concentration at each time point ([1]; 11 days): decreased mainly during the four first days
ADC concentration ([1]; over the 11-day period): decreased during this period
total Ab level ([1]; over the 11-day period): ~100 µg/mL
average DAR ([2]; day 0): 4.5
average DAR ([2]; day 4): 2.0
average DAR ([2]; days 4 to 11): stable

— US11340233B2, “Universal method to capture and analyze ADCs for characterization of drug distribution and the drug-to-antibody ratio in biological samples” (priority 2016, dated 2022)
